Key:
[1] = target: CXCR4 endogenous on cells (human (endogenous in Daudi and Jurkat)) (UniProt P61073)
[2] = target: CXCR4 endogenous on cells (human (endogenous in Daudi and Jurkat)) (UniProt P61073); remark: listed apart in the source

UniProt P61073, sequence (P61073 whole entry): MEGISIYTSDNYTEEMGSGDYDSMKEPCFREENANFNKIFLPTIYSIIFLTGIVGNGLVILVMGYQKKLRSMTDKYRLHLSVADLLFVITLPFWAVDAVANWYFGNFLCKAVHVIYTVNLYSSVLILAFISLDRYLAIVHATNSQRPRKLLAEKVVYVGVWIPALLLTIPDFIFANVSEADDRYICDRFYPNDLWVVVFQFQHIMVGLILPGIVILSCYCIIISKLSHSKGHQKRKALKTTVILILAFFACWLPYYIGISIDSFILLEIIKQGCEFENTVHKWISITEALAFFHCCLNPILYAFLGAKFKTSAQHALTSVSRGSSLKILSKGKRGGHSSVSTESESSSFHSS

For “recombinant X4 HIV-1 gp120 (residues 31-507, isolate HXB2) with a C-terminal histidine tag (from UniProt P04578 31-507) (domain or fragment)”, the SPT-TIRF: percentage of CXCR4-AcGFP particles that are nanoclusters (≥3 receptors/particle) on JKCD4+X4- cells on X4-gp120-coated coverslips (basal ∼2%) [1] was 18%.

“X4 HIV-1 Env (gp120 and gp41) of HXB2 on virus-like particles (from UniProt P04578 33-511; P04578 512-856) (complex)” showed an SPT-TIRF: percentage of CXCR4-AcGFP particles that are nanoclusters (≥3 receptors/particle) on JKCD4+X4- cells on gp120-VLP-coated coverslips (basal ∼1%; Env(-) VLPs ∼9%) [2] of 29%.

— paper PMC13167113
